Assay results: publication PMC7712654 (2020)

B1: coiled-coil domain of CTI1 fused with HIS tag (domain or fragment)
chain: PQISKAIAGADRKDLMRKLPKFIYDEEKALEKTRKVLAEKIAQLNSAIDDVSSQLKSEDTPNGAALSTDEIEATA
B2: α-CT coiled-coil domain fused with HIS tag (α-CT-His), fluorescently labeled (domain or fragment)
chain: INMKKREAVFSDSRKLQGEVDKLKEQILKAKETSTEAEPSSEVLNEMIEKLKSEIDDEYTEAAIAVGLEERLTAMREEFSKASSEEHLMHPVLIEKIEKLKEEFNTRLTDAPNYESLKSKLNMLRDFSRAKAASEATSLKKEINKRFQEAVDRPEIREKVEAIKAEVASSGASSFDELPDALKEKVLKTKGEVEAEMAGVLKSMGLELDAVKQNQKDTAEQIYAANENLQEKLEKLNQEITSKIEEVVRTPEIKSMVELLKVETAKASKTPGVTEAYQKIEALEQQIKQKIAEALNTSGLQEKQDELEKELAAARELAAEESDGSVKEDDDDDEDSSESGKSEMVNPSFA
modifications: fluorescently labeled using His-tag labeling kit (NanoTemper, MO-L008)

Key:
[1] = biological target: B2; test: MST
[2] = biological target: coiled-coil domain of CTI3 fused with HIS tag (Arabidopsis thaliana); test: MST

Binder | Kd [1] [nM] | Kd [2] [nM]
B1 | 14.8 | 
B2 |  | 114
